Assay results: the DeepSol protein solubility set

Assay: soluble on expression in E. coli; label from the status in PepcDB or PDB records

| Sequence | soluble on expression in E. coli |
| --- | --- |
| MSLQTDDPMIVAHRAGTRDFPENTVLAITNAVAAGVDGMWLTVQVSSDGVPVLYRPSDLATLTDGAGPVNSKTVQQLQQLNAGWNFTTPGVEGHPYRQRATPIPTLEQAIGATPPDMTLFLDLKQTPPQPLVSAVAQVLTRTGAAGRSIVYSTNADITAAASRQEGLQVAESRDVTRQRLFNMALNHHCDPQPDPGKWAGFELHRDVTVTEEFTLGSGISAVNAELWDEASVDCFRSQSGMKVMGFAVKTVDDYRLAHKIGLDAVLVDSPLAAQQWRHEGHHHHHH | not soluble |
| MTSTPIERAVYIVSDSTGITAETFSHSVLSQFDEVNFKPVRLPFIDTLDKAREVVARINRNALEAGVPPIVFSTLVNPEILALVRQSNGVFLDLFGTFVSHIEQALGLKSSHSIGRSHMAANSEKYRNRIDAINFSLAHDDGQFVNQLDQADVILLGVSRCGKTPTSLYLAMQYAVKAANFPLTPDDFERGALPKTIAPYRGKLFGLSIQPERLAEVRNERRPNSHYARLEQCRYEVAEAERMMRREGISWLSTTTKSIEEIATTVLQEVGLERVAAALEHHHHHH | soluble |
| MSLELKITDFKVFVAQANFEWAFVRIYSKDLYGTGEAGPAPGLKGMESEFIQLLIGEDAFKVNRIAEKLRYATLYSGTTVYHLISAINIALYDLIGKYLNVPIYKLLGGDKTEIPVYVDAHGGKGLEAINALHLPVNLPWIKEAEVETNRLITTNNPVHGRLSMEKWNEDYSPEAYAKRALKMKNEGYKAMKFDLDVPTPYIDLRRVRNGDLSLKDIDYMVDIVKAVRESVGDEVEIMFDLHWRYNLNTAIRICKALEPYRLRWLEDPMPAIMAVSNYDELKLLTSQCSVPIETGENLYTVYQFKDLLNTGVRVWAPDIVKAGGITEGRRIAELAAMYDIEYSPHNIASPIGTMAHAHVGSIANTFGFVEFHGHDVPFWNEIVKPKRKIIEDGVIKLTDDPGLGIDLDDEVMRKYWPTYELEGHHHHHH | not soluble |
| MPANELFGDSDPEGDEIFERVRKVQPKSINVTENQKVDPMRKVKIELQAVLVAEKIPISTEEIRRRLLDSYGACPDPKRYNCSTLDDLLQACSESIVHTFGRDGIHRYGPRTTEANQDIIEMVQQQSSSKRPARSFLGSGATNNLSTHGSSFRAFRGPYASEEIAKSRGTPEQFKARHKLGPAKTISRVKNLAEVLKEYADEIGVSHPDEPNRKIVTLAALANKFKQLYCLPAWGKNISESELYIQLNVPPFNEYLHFWRLSEKGDIFVDCIDRDNADPTQKSEQNPSADVSIQSESFGGKSSASAFEQSVVSAPSTIRDQTSDSFDGFNSFEVPPENGSKDSKIFNSNQESIDDYPGNAISRDRTADMTDIALRFGTVSVASQQCPVSSSLVPQNGILRQSRAQEDDNNTSILTIQSSRRNHSVLRHRTIKPRNPTQNLAEVVKTHGSIPYEALSDCDKIIVDLGKNIFKVYATQPGEMMVRLCDPHVDTTTLPLLENNLRDPVESDLRWMTLGNSHIKKQSVKVVKPAMFIAPRGFLLILKDEEREEMDVEKVATMGNILRAVMVAPIVELQRETVRTGSAAVYVYRQGAEVRYYRVLIVGQAKQDGEVLVLLADVDDQYFVDVHLSHLFPIPEEASFKHFPSNVVFATLHGVLGLTLSEQDVMFENIDNDDTKRFVGGYFHGNDDRILNIDMVWKNERGQFEWLSQIVKRRGAVTSSDANIIHFPHSALDVIKSVGPDCSVCFVDYSVRDESATSSLMESTRIVHDSRESMTTTYVGEMPSPIIEEIDATSSFDPKLLNLHSLFDKLIEEQNVTMIVGMFQFVRSLKDLFGDNNEWERLLTYMLTTGKNNNIRL | not soluble |
| MGSDKIHHHHHHMEVIHPRCAGVDISKKDAKVCVRIQGRGGRSTTSTITTWGSMTGQILGLKEHLLDEHVDLVVMEATGDYWRPFYYLLEDDGLNIILVNAHDARNVPGRKTDVSDAAWLADLGAHGLVRASFVPPPPIRELRDLTRARTIITQERTREIQRLEKLLEDACIKLSSVASNITGVSGRLILQALIDGQTDPAALAEMAQRRLRSKIPELTQALNGRFTEHHRYMTGLYLHRIDAHTADINDLSARIEAAMEPFRFARELLVSIPGFSTTIAEIFIAETGADMSAFATAGQLASWAGTSPGSNESAGRVKSTKTRPGNRYLKGALGIAALSCAKSKNTYLGARYRRIASRRGPAKALVAVEHSILTAAWHMLTTGELYNDPGADYFTRQTPVKTMARAVRQLESLGYQVILEPLQQTG | not soluble |
| SPSDVLVIENKHLTKEWPSGGQMMVNNLTAKYTSDGRAVLQDLSFSVNAGQRVGLLGRTGAGKSTLLSALLRLLSTEGEIQIDGISWNSVSLQKWRKAFGVIPQKVFVFSGTFRKNLDPYEQWSDEEIWKVTEEVGLKSMIEQFPDKLNFVLVDGGYILSNGHKQLMCLARSILSKAKILLLDEPTAHLDPVTFQIIRKTLKHTFSNCTVILSEHRVEALLECQQFLVIEGCSVKQFDALQKLLTEASLFKQVFGHLDRAKLFTAHRRNSSKRKTRPKISALQEEAEEDLQETRL | soluble |
| MGSDKIHHHHHHMYDLIGVGIGPMNLGLSALAHPTPLRTLFFDESEQFSWHPGMMIKDSMMQTSFISDLVTLADPTSPFTYLNYLRSLNRLHTFYFYEKLLISRQEYNAYLKWVSTQLDDLHFSTRVIDIQDTGDSYEVLVEEVATGKRTTYETRNVVLGTGSKPSIPGSFDKNVIHNTQYVMEKEAILQQDKVSIVGSGQSAAEIFLDLLTSDRPETFELEWISRSTIFETLETGKLGEEIFSPSYVRYFNSLPLATRQEAVAKFTRSQNGISPETLQAIYEHLYDLSPEEQQRVKIRANLEVDQISYDSDFTITMRHTELNEQRTSKTGAVVAATGFVPSLPRFINRLDIEFEGEQQAWKVDANYRISRTVSANHHLYATTNLELSHGPAADNLGMSVSRNQLILNDVAGKELYPVEQHATFTTFD | not soluble |
| NSLFNQEVQIPLTESYCGPCPKNWICYKNNCYQFFDESKNWYESQASCMSQNASLLKVYSKEDQDLLKLVKSYHWMGLVHIPTNGSWQWEDGSILSPNLLTIIEMQKGDCALYASSFKGYIENCSTPNTYICMQRTV | soluble |
| MGSDKIHHHHHHVVKHPAWSRFGAEVRRLRVQSGYSQAQLARAIPLSQSMLSGIELGRKGAKRDHAEALDRVLNTGGRLVRLWDSLNSIPAHPSWFQNVLALERKAVEIREYQMVVLPGLLQTEDYARSLIRPAQPWANAEKVDELVHARMSRREILTAPDRPLCWFVVDQVVIDRVTGSPTVMKEQLTYLLNLIEDHTIRFQVFPQEIPLHPGLTGPIRIMSFDDRPTMAYVEHTLGGLLTDQQQEVRYCSAIFSALQSEALSSHASADYIRRRKDQL | not soluble |
| QKKIADRLMKFEEQLPEALDIIKRVLQAGQPITQAFGEVGREVSAPLGPEFLNTFNLLNYGYDLRLAIMQMSERTPTVSMLAFSSAVLLQKETGGNLVENIEKLSHILRARFKLARKIKTISAESRMS | not soluble |
| MAGDPMNDVSKASLPKAIFLMGPTASGKTALAIELRKVLPVELISVDSALIYRGMDIGTAKPNADELKAAPHRLLDIRDPSQAYSAADFRRDALAQMAEITAAGRIPLLVGGTMLYFKALLEGLSPLPSADPEVRSRIEQQAAELGWEALHQQLQEIDPVAAARIHPNDPQRLSRALEVFFISGKTLTELTQTSGDALPYQVHQFAIAPASRELLHQRIELRFHQMLASGFEAEVRALFARGDLHTDLPSIRCVGYRQMWSYIEGEISYDEMVYRGVCATRQLAKRQMTWLRGWEGVRWLDSENPDRARKEVLQVVGAIADLEHHHHHH | soluble |
| MSLNKPVLPKPAPSISSLSLKLPKADRSIETYRLAASRTFPARLEGPLNRIAFSAVHTVADPFADNDPWLSVAVDWDKTIAFREHVWDLGLGVAEAMDTAQRGMGLDWPTSLELITRSVAAAKRRNALVFSGAGTDHLAVEDARTVDDVIRAYEEQISAVEKVGGRIILMASRALAKLGRNADDYAKVYDRVLSQVREPVIIHWLGDMFDPALTGYWGTKDLDKAMDVAVAVINANAAKVDGVKVSLLDKQREIDMRRRLDKRIRMYTGDDFNYAELIAGDSQGFSHALLGIFDAIAPAASYALSRLAAGDEAGFHDVLGPTVPLSRHIFKAPTRFYKTGVVFMAYLNGHQDHFTMVGGQESARSMLHLAELFRLADQAGLLANPELATRRMTTVLASHGIESEGHHHHHH | not soluble |
| MSLTLGIAFVGSGFSAKFHLRGLVGVRNVEVKGVYSRNLNSSKEFAMLSEQLGLGKPKVYSDISKMLSDKEINAVWLTVPNDVHLEYTKLIAEEVSQGRSNIHGITIEKPLARNVKEAKEMIRLVEKAGLLHGYLENQIFMPSVVRAREAIWEIGSRNSGRPYLARAAEEHSGPHNSWFWRPTISGGGALIDMTCHSLEATRFLLTDPAKTKSSLKPKTVYAETKTLKWNKKEYAQYLKEKYNVDFLKEPAEDYALTIVTYEDDLGNSVLAETRTSWNYVGPGLRLSVEVLGPEYSVNINTLQSELSVFFSRNIKLPQSEAFVEKQNADQGLMPIILDEAVVYGYQGEDRHMVESFISRKMPFENWYDGLLIVQLMMHAYLSAENGRKISFDPQKVEDFIPKVARGLYSAEGHHHHHH | soluble |
| MSLNVVNSIFSKLSIAPMIDWTNSPFRTLMRLLAPNALLYTEMQTTGAVQNNPDRALYFNSVEHPLAIQLGGADKSALVKCAIIAEQKGFNEINLNLGCPSDKVQAGRFGACLMKEPEHVADCIRAIKQVVGIPVTAKTRIGIDNQDSYEFFRSFSLHLVEAGCDKLIIHARKAWLNGLNPKQNRTIPPVNYDYVYELKKEIPHIFITINGNILTVEEINNHLKHVDGVMLGRLACDNPYQIAEIHQALYPEFIKIKRSQLLMNYLDYWFDQSRANEGHHHHHH | not soluble |
| MNLMLCCTPLQVLIARKIIELHPNEQFFGVMFGGVWDKKRTLYASKLAEVCSDSMNIDTGKDLKGFDFLKLMRQLKNKITHKGFDKVFLANLNSLWLQTYLSHVSFKELYTFDDGSDNIFPHPNLLREPGTFKYKLIKAFIGDKYSVNKLFKKIKKHYTVYPNYKNIVSNIEPISLWDNQIDCEIDGEVSFFIGQPLLNTKEENISLIKKLKDQIPFDYYFPHPAEDYRVDGVNYVESELIFEDYVFKHLSNKKIIIYTFFSSVAFNLLSHPNVEIRFIRTSIPRWQFCYDSFPDLGLTIYKEI | not soluble |
| MERDERPPSGGGGGGGSAGFLEPPAALPPPPRNGFCQDELAELDPGTNGETDSLTLGQGHIPVSVPDDRAEQRTCLICGDRATGLHYGIISCEGCKGFFKRSICNKRVYRCSRDKNCVMSRKQRNRCQYCRLLKCLQMGMNRKAIREDGMPGGRNKSIGPVQISEEEIERIMSGQEFEEEANHWSNHGDSDHSSPGNRASESNQPSPGSTLSSSRSVELNGFMAFRDQYMGMSVPPHYQYIPHLFSYSGHSPLLPPQARSLDPQSYSLIHQLMSAEDLEPLGTPMLIEDGYAVTQAELFALLCRLADELLFRQIAWIKKLPFFCELSIKDYTCLLSSTWQELILLSSLTVYSKQIFGELADVTAKYSPSDEELHRFSDEGMEVIERLIYLYHKFHQLKVSNEEYACMKAINFLNQDIRGLTSASQLEQLNKRYWYICQDFTEYKYTHQPNRFPDLMMCLPEIRYIAGKMVNVPLEQLPLLFKVVLHSCKTSTVKE | not soluble |
| MGSDKIHHHHHHMIDKLEFFIALARAQHFGRAAEECGISQPTLSAAIRQLEDQLGVILVQRGSRFQGLTPEGQRVLEWARRIVGDARTMREEMRAARNGLAGHIRLAVIPTALAMVQRLTEPFQAHHPAVTFQVVSRNSLQVLSLLENLEIDAGITYLDNEPLGRVTSVPLYAERYHLIAATGTPLADRESVTWREVSDLRLCLLTADMQNRRIINQHFTEAGVVPRPTLESNSMIVLFSHIRTGQWSSIMPRNVAESFGFPEEIRMVPIVEPQAQHLVGLVATHREPYTPLVSALLHEARRLAAAQVFDRFFLSRNNTAVLT | not soluble |
